Experimental findings from PMC2116342 (The Journal of Cell Biology, 1990) are described below.

Data set [1] concerns the target L-desmin (desmin lacking its carboxy-terminal 27 residues) (chicken). Put plainly: cross-linking.
The data set “cross-linking” deals with the molecule itself. Put plainly: cross-linking.

In the case of “L-desmin (desmin lacking its carboxy-terminal 27 residues) (domain or fragment)”, the stoichiometry N in data set [1] came out at 4.

B1: desmin (intact chicken gizzard desmin) (natural protein, UniProt P02542 1-464, looked up)
chain: MSQSYSSSQRVSSYRRTFGGGTSPVFPRASFGSRGSGSSVTSRVYQVSRTSAVPTLSTFRTTRVTPLRTYQSAYQGAGELLDFSLADAMNQEFLQTRTNEKVELQELNDRFANYIEKVRFLEQQNALMVAEVNRLRGKEPTRVAEMYEEELRELRRQVDALTGQRARVEVERDNLLDDLQKLKQRLQEEIQLKEEAENNLAAFRADVDAATLARIDLERRIESLQEEIAFLKKVHEEEIRELQAQLQEQHIQVEMDISKPDLTAALRDIRAQYESIAAKNIAEAEEWYKSKVSDLTQAANKNNDALRQAKQEMLEYRHQIQSYTCEIDALKGTNDSLMRQMREMEERFAGEAGGYQDTIARLEEEIRHLKDEMARHLREYQDLLNVKMALDVEIATYRKLLEGEENRISIPMHQTFASALNFRETSPDQRGSEVHTKKTVMIKTIETRDGEVVSEATQQQHEVL
In the case of B1, the “stoichiometry N” value in “cross-linking” was determined as 4.

By stoichiometry N is commonly meant a count of units in the complex or per binding partner.
